Substrate in this data set: OC[C@H]1O[C@@](CO)(O[C@H]2O[C@H](CO)[C@@H](O)[C@H](O)[C@H]2O)[C@@H](O)[C@@H]1O
Nature of the data set: DNSA reducing sugar assay, initial rates, Lineweaver-Burk. Format: cell-based, Thermotoga maritima. The conditions noted are these: free (non-immobilized) heat-killed P. pastoris cells with periplasmic enzyme, 10-200 mM sucrose, 50 mM sodium acetate pH 5.5, 60 °C, cell-wall diffusion barrier.

B1: BfrA (Thermotoga maritima β-fructosidase) (Thermotoga maritima MSB8) (protein)
chain: MFKPNYHFFPITGWMNDPNGLIFWKGKYHMFYQYNPRKPEWGNICWGHAVSDDLVHWRHLPVALYPDDETHGVFSGSAVEKDGKMFLVYTYYRDPTHNKGEKETQCVAMSENGLDFVKYDGNPVISKPPEEGTHAFRDPKVNRSNGEWRMVLGSGKDEKIGRVLLYTSDDLFHWKYEGVIFEDETTKEIECPDLVRIGEKDILIYSITSTNSVLFSMGELKEGKLNVEKRGLLDHGTDFYAAQTFFGTDRVVVIGWLQSWLRTGLYPTKREGWNGVMSLPRELYVENNELKVKPVDELLALRKRKVFETAKSGTFLLDVKENSYEIVCEFSGEIELRMGNESEEVVITKSRDELIVDTTRSGVSGGEVRKSTVEDEATNRIRAFLDSCSVEFFFNDSIAFSFRIHPENVYNILSVKSNQVKLEVFELENIWL
notes: secreted to periplasm of Pichia pastoris PpBfrA(4x); N-glycosylated, 58 and 53 kDa (51 kDa deglycosylated); assayed in heat-killed whole cells
With B1, the Km amounted to 99 mM.

The term Km denotes the substrate concentration at which the rate is half of its maximum.

The record behind these values is article PMC4078364, “Complete sucrose hydrolysis by heat-killed recombinant Pichia pastoris cells entrapped in calcium alginate” (Microbial Cell Factories, 2014).
